Test results: US20180185504A1 (Regeneron, published 2018)

Legend:
[1] = target: T1, human PRLR on cells (endogenous on T47D, T47D#11, MCF7); introduced in HEK293/hPRLR/STAT5-Luc, 293/hPRLR, … (human, UniProt P16471 25-622); assay: FACS on T47D cells
T1 construct: no tag is stated for these lines; also called prolactin receptor
T1 sequence: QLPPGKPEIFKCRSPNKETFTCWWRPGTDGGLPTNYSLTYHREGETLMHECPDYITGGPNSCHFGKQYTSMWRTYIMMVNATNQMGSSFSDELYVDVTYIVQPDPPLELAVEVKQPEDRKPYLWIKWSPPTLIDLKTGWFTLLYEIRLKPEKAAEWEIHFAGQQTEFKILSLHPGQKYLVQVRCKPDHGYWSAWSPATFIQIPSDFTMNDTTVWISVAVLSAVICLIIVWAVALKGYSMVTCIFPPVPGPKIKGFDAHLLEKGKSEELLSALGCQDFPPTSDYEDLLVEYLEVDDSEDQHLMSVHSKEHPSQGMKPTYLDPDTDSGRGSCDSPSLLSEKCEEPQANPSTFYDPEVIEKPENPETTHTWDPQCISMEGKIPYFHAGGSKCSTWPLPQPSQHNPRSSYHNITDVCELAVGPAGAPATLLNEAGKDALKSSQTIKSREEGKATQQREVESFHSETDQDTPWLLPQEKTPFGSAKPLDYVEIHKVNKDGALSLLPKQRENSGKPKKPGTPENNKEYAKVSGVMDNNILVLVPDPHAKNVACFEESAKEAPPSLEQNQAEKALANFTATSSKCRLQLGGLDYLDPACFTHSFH

[2] = target: T1, human PRLR on cells (endogenous on …); assay: cell-based or functional assay
[3] = target: T1, human PRLR on cells (endogenous on …); assay: cell-based or functional assay; remark: listed apart in the source
[4] = target: T2, monkey macaca fascicularis PRLR construct with an HA tag on HEK293/mfPRLR cells (macaca fascicularis, UniProt A0A2K5WXK1 25-619); assay: FACS on HEK293/mfPRLR cells
T2 construct: stably transfected into HEK293
T2 sequence: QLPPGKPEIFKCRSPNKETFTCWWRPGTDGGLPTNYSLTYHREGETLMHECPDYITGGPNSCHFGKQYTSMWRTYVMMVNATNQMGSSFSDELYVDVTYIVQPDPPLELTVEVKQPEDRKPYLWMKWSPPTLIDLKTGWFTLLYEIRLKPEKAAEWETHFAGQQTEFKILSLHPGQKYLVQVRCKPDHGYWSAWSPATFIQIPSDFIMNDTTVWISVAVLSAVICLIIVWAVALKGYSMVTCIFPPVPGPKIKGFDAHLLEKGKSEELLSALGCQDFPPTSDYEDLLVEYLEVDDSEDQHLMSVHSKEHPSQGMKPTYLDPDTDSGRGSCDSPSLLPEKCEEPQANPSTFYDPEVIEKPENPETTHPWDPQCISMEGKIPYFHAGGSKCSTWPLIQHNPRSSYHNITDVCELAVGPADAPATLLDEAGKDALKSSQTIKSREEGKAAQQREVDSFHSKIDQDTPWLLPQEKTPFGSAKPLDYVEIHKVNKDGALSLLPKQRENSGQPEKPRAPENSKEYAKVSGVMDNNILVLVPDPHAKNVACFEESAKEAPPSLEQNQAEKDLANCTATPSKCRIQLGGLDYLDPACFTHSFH

[5] = target: T3, hPRLR.mmh (soluble monomeric human PRLR) (human); assay: SPR (Biacore), antibody capture, 37 C
T3 construct: soluble monomeric PRLR protein
T3 chain: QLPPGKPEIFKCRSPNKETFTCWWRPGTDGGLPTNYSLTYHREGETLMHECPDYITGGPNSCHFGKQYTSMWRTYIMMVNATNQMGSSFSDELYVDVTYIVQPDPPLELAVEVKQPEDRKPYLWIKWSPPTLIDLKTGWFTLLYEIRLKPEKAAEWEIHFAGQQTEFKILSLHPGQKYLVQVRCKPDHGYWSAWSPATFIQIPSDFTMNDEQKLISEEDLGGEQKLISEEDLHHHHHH
Description: (§1) Measurements were conducted on a T200 Biacore instrument. Kinetic association (kₐ) and dissociation (kd) rate constants were determined by processing and fitting the data to a 1:1 binding model using Scrubber 2.0 curve fitting software.

[6] = target: T4, hPRLR.mFc (soluble dimeric human PRLR) (human); assay: SPR (Biacore), antibody capture, 37 C
T4 construct: dimeric PRLR construct
T4 chain: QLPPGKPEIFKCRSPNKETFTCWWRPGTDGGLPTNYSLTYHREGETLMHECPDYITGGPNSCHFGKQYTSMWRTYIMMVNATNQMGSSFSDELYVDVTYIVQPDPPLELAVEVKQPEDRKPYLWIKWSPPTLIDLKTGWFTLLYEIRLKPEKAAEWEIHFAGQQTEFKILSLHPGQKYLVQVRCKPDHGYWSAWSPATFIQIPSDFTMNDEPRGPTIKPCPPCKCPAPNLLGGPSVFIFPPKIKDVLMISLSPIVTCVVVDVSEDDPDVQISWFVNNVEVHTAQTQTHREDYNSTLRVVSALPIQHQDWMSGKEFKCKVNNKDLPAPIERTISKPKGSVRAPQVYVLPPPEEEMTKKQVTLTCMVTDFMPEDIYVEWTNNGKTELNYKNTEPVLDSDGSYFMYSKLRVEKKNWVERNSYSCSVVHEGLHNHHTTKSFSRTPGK
Description: as §1

[7] = target: T1, human PRLR on cells (endogenous on …); assay: imaging of alexa488 intensity on T47D cells
Summary of the method: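 T47D cells labelled on ice with alexa488 anti-hFc Fab secondary for 30 min, then held 1 h at 37 °C in PBS+2% FBS or at 4 °C. After fixation and DRAQ5 staining, whole-cell (binding) and intracellular-vesicle (internalization) alexa488 intensities at 37 °C quantified by imaging.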

Binder | FACS Cell Binding (Fold Above Background) [1] [fold] | % Internalization relative to Control I (T47D cells, imaging) [2] [%] | Percent Blocking at 100 nM Antibody (STAT5-Luc reporter) [3] [%] | FACS Cell Binding (Fold Above Background) [4] [fold] | Kd [5] [nM] | T 1/2 [5] [min] | koff [5] [s⁻¹] | kon [5] [M⁻¹ s⁻¹] | Kd [6] [nM] | T 1/2 [6] [min] | koff [6] [s⁻¹] | kon [6] [M⁻¹ s⁻¹] | % Total Binding relative to Control I [7] [%] | IC50 of Blocking 5 nM PRL [M] (STAT5-Luc reporter, HEK293/hPRLR/STAT5-Luc cells) [3]
H1H6797P (antibody, human IgG1, V domains shown, human IgG1 Fc (H1H)) VH: EVQLVESGGGLVQPGGSLRLSCIVSGFTFSGSWMSWVRQLPGKGLEWVANIKEDGSDSYYVDSVEGRFTISRDNAKSSLYLQMNSLRVDDTAVYFCARARTVPLHYWGQGTLVTVSS VL: DIQMTQSPSTLSASVGDRVTITCRASQSINIWLAWYQQKPGKAPKLLIYRASYLESGVPSSFAGGGSGTEFTLTISSLQPDDFGTYYCQHYNSYPFTFGQGTKLEIK | 38 | 145 | 0 | 25 | 6.37 | 1 | 0.00822 | 1.29e+06 | 0.0691 | 93 | 0.000125 | 1.8e+06 | 151 | –
H1H6959N2 (antibody, human IgG1, V domains shown, also called H2M6959N2) VH: EVQLVESGGGLVQPGRSLRLSCAASGFTFDDYAMHWVRQAPGKGLEWVSGISWHSGIIGYADSVKGRFTISRDNAKNSLYLQMNSLRTEDAALYYCAKIGSYFYFDSWGQGTLVTVSS VL: EIVLTQSPGTLSLSPGERATLSCRASQSVSSNYLAWYQQKPGQAPRLLIYGASSRATGIPDRFSGSGSGTDFTLTISRLEPEDFAVYYCQQFGSSGYTFGQGTNLEIK | 9 | 15.3 | 52 | 11 | 681 | 0.4 | 0.0277 | 40600 | 4.51 | 5 | 0.0023 | 509000 | 2 | –
H1H6966N (antibody, human IgG1, V domains shown, also called H2M6966N) VH: QVQLVQSGAEVQKPGASVKVSCKVSGYTLTALSIHWVRQAPGKGLEWMGNFDPGDGETIHAQKFQGRVTMTGDTSTDTAYMELSSLRSEDTAVYYCVGVTFDYWGQGTLVTVSS VL: EIVMTQSPATLSVSPGERATLSCRASQSVASNLAWYQQKPGQAPRLLLYGASTRATGIPARFSGSGSGTEFTLTISSLQSEDFALYYCQHYNNWPLTFGGGTKVEIK | 31 | 137 | 54 | 18 | 0.607 | 12 | 0.00096 | 1.58e+06 | 0.0672 | 91.3 | 0.000127 | 1.88e+06 | 111 | –
H1H6804P (antibody, human IgG1, V domains shown, human IgG1 Fc (H1H)) VH: QVTLKESGPVLVKPTQTLSLTCTVSGFSLSDAGMGVSWIRQPPGKALEWLAHIFSNDGKSYSTSLKSRLTISKDTSKRQVVLTMTNMDPVDTATYYCARIRTGTYSLYLDYWGQGTLVTVSS VL: DIQMTQSPSSLSASVGDRVTITCRASQSINSYLNWYQQKPGKAPKLLLYFASSLQSGVPSRFSGSGSGTDFTLTISSLQPEDFASYYCQESYSTPWTFGQGTKVEIK | 34 | 139 | 100 | 29 | 6.34 | 3 | 0.00385 | 607000 | 0.369 | 56 | 0.000205 | 554000 | 150 | 7.89e-09
H1H6960N (antibody, human IgG1, V domains shown, also called H2M6960N) VH: EVQLVESGGGLVKPGGSLRLSCAASGITFSSYSMNWVRQAPGKGLEWVSSISTRSSLIHYADSVKGRFTISRDNAKNSLYLQMNSLRDEDTAVYYCARWDAAAAFDYWGQGTLVIVSS VL: DIQLTQSPSFLSASVGDRVTITCWASQGISSYLAWYQQKPGKAPKLLIYVASTLQSGVPSRFSGSGSGTEFTLTISSLQPEDFATYFCQQLNSYPLTFGGGTKVEIK | 33 | 120 | 100 | 23 | 16.2 | 5.8 | 0.00198 | 122000 | 0.5 | 78.7 | 0.000147 | 294000 | 89.7 | 1.58e-09
